Assay results taken from patent CN107417789A.

Target: 移除了糖基化位点(Asn-38)的H7 HA(A/鸡/意大利/99假病毒) (influenza A virus A/chicken/Italy/99 (H7))
Test: cell-based or functional assay

Substance	H7假病毒中和 IC50 [µg/mL]
CR6261 (antibody)	> 50
F10 (antibody)	> 50
